# Test results taken from CN109384844A (INST OF BASIC MEDICAL SCIENCES THE ACADEMY OF MILITARY …, dated 2019).
# B1: AAH-1抗体 (antibody, V domains shown)
# VH: QMQLVQSGAEIRRPGSLVKVSCQASGGSFKNFALNWVRQAPGLGLQWMGSITPFLNVPTYAQQFQGRVTMSTDTSTSTAYMVLRRLTSDDTAVYYCARGNSLLDYWGQGTLVTVSS
# VL: EIVLTQSPATLSVSPGDGATLSCRASQSVSGNLAWYQKKPGQAPRLLIYDTSIRAAGVPPRFSGSGSGTEFTLTISSLQSEDFAVYYCQQYHNLPPLTFGPGTKLEIK
# How the values were obtained:
# [1] = biological target: T1, Hla蛋白 (Staphylococcus aureus)
# [2] = biological target: T1, Hla蛋白; remark: listed apart in the source
# T1 sequence (Q2G1X0 27-319 limits assumed): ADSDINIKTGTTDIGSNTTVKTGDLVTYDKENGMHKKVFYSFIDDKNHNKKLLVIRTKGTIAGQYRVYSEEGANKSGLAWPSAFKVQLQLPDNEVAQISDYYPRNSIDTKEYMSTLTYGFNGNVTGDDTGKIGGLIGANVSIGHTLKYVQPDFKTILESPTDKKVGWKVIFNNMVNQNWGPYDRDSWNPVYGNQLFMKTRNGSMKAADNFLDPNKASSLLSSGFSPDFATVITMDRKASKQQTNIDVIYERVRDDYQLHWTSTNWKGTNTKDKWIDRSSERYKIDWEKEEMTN
binder,measurement,setting,value
B1,EC50,[1],0.075 µg/mL
same,Kd,[2],1.92 nM
same,koff,[2],0.000255 s⁻¹
same,kon,[2],133000 M⁻¹ s⁻¹
